B1: MEIG1 wild type, two-hybrid fusion from MEIG1/pGBKT7 [mouse] / Parkin co-regulated gene protein (PACRG), two-hybrid fusion from PACRG/pGADT7 [mouse] (parent complex)
chain 1: MATSDVKPKSISRAKKWSEEIENLYRFQQAGYRDEIEYKQVKQVAMVDRWPETGYVKKLQRRDNTFFYYNKERECEDKEVHKVKVYVY
chain 2: not shown

Variants of: B1
Assay: yeast two-hybrid, α-galactosidase activity; Yeast strain AH109 co-transformed with PACRG/pGADT7 and MEIG1/pGBKT7 plasmids; parent: 64; read off a plot

| Variant | response |
| --- | --- |
| chain 1 Y68A | ~3.3 |
| chain 1 W50A, chain 1 Y68A | ~2.2 |
| chain 1 W50A | ~12 |

Variants of: B1
Assay: yeast two-hybrid, α-galactosidase activity; Yeast strain AH109 co-transformed with PACRG/pGADT7 and MEIG1/pGBKT7 plasmids; parent: 65; read off a plot

| Variant | response |
| --- | --- |
| chain 1 Y68A | ~5 |
| chain 1 R62E | ~67 |
| chain 1 W50A | ~10 |
| chain 1 K57E | ~22 |
| chain 1 H81A | ~85 |
| chain 1 R13E | ~81 |
| chain 1 Y25A | ~58 |
| chain 1 F66A | ~15 |
| chain 1 E20R | ~72 |
| chain 1 V87A | ~72 |
| chain 1 I36A | ~67 |
| chain 1 K9E | ~72 |
